Measurements reported in patent US5866392A, “Cellobiose oxidase, and enzymatic agent and a process for treating paper pulp” (priority 1992, dated 1999).

B1: Humicola insolens cellobiose oxidase (CBO, 92 kDa, pI 4.0) (Mycothermus thermophilus) (protein)
chain: QATGDAYTDSETGIKFQTWSPDPQFTFGLALPPDALEKDATEYIGLLRCTRADPSDPGYCGLSHGQVGQMTQSLLLVAWAYENQVYTSFRYATGYTLPGLYTGNAKLTQLSVNITDTSFELIYRCENCFSWEHEGSTGSSSTSQGYLVLGRASARRGVVGPTCPDTATFGFHDNGFGQWGVGLENAVSEQYSEWASLPGLTVETTCEGSGPGEAQCVPAPEETYDYIVVGAGAGGIPVADKLSEAGHKVLLIEKGPPSTGRWQGTMKPEWLEGTDLTRFDVPGLCNQIWVDSAGIACTDTDQMAGCVLGGGTAVNAGLWWKPIDLDWDENFPEGWHSQDLAAATERVFERIPGTWHPSMDGKLYRDEGYKVLSSGLAESGWKEVVANEVPNEKNRTFAHTHFMFAGGERNGPLATYLVSADARENFSLWTNTAVRRAVRTGGKVTGVELECLTDGGYSGIVKLNEGGGVIFSAGAFGSAKLLFRSGIGPEDQLRVVASSKDGEDFIDEKDWIKLPVGYNLIDHLNTDLILTHPDVVFYDFYEAWTTPIEADKQLYLEQRSGILAQAAPNIGPMMWEQVTPSDGITRQFQWTARVEGDSRFTNSSHAMTLSQYLGRGVVSRGRATITQGLVTTVAEHPYLHNAGDKEAVIQGIKNLIESLNVIPNITWVLPPPGSTVEEYVDSLLVSASARRSNHWMGTAKLGTDDGRYGGTSVVDLDTKVYGTDNLFVVDASIFPGMSTGNPSAMIVIAAEQAAERILKLRK
B2: CBH II (cellulase) (Mycothermus thermophilus) (protein)
chain: APVVEERQNCAPTWGQCGGIGFNGPTCCQSGSTCVKQNDWYSQCLPGSQVTTTSTTSTSSSSTTSRATSTTRTGGVTSITTAPTRTVTIPGGATTTASYNGNPFEGVQLWANNYYRSEVHTLAIPQITDPALRAAASAVAEVPSFQWLDRNVTVDTLLVETLSEIRAANQAGANPPYAAQIVVYDLPDRDCAAAASNGEWAIANNGANNYKGYINRIREILISFSDVRTILVIEPDSLANMVTNMNVAKCSGAASTYRELTIYALKQLDLPHVAMYMDAGHAGWLGWPANIQPAAELFAKIYEDAGKPRAVRGLATNVANYNAWSISSPPPYTSPNPNYDEKHYIEAFRPLLEARGFPAQFIVDQGRSGKQPTGQKEWGHWCNAIGTGFGMRPTANTGHQYVDAFVWVKPGGECDGTSDTTAARYDYHCGLEDALKPAPEAGQWFQAYFEQLLRNANPPF

Key:
[1] = substrate: CN(C)c1ccc2nc3ccc(=[N+](C)C)cc-3sc2c1; experiment: purified protein, by the assay type; conditions: other: electron acceptor + 225 μM cellobiose, 0.1M sodium phosphate buffer, pH 7.5, 40° C.
[2] = substrate: CC(C)(C)C1=CC(=O)C(=O)C(C(C)(C)C)=C1; experiment: purified protein, by the assay type; conditions: other: electron acceptor + 225 μM cellobiose, 0.1M sodium phosphate buffer, pH 7.5, 40° C.
[3] = substrate: OC[C@H]1O[C@@H](O[C@H]2[C@H](O)[C@@H](O)C(O)O[C@@H]2CO)[C@H](O)[C@@H](O)[C@H]1O; experiment: purified protein, by the assay type; conditions: other: sugar + 90 μM DCPIP, 0.1M sodium phosphate buffer, pH 7.5, 40° C.
Procedure: (§2) The measurements were performed in 0.1M sodium phosphate buffer at pH 7.5 at 40° C. 450 μl of a mixture of 100 μM of 2,6-Dichlorophenol-indophenol (DCPIP, Merck), 250 μM of cellobiose (Sigma) were mixed with 50 μl enzyme. Units of activity equals μmol cellobiose oxidized (DCPIP reduced) per min.
(§3) All measurements were performed in 0.1M sodium phosphate buffer, pH 7.5, at 40° C. […] The reactions were monitored for 400 s as changes in absorbance at the appropirate wavelength (see above). […] The catalytic constants (kcat) were expressed as mol of oxidized cellobiose/s/mol of enzyme. […] The kinetic constants were determined using Lineweaver-Burke plots and were the result of dual determinations.

[4] = substrate: OC[C@H]1O[C@@H](O[C@H]2[C@H](O)[C@@H](O)C(O)O[C@@H]2CO)[C@H](O)[C@@H](O)[C@@H]1O; experiment: purified protein, by the assay type; conditions: other: sugar + 90 μM DCPIP, 0.1M sodium phosphate buffer, pH 7.5, 40° C.
Procedure: as §2, §3

[5] = substrate: OC[C@H]1O[C@@H](O[C@H]2[C@H](O)[C@@H](O)[C@H](O[C@H]3[C@H](O)[C@@H](O)C(O)O[C@@H]3CO)O[C@@H]2CO)[C@H](O)[C@@H](O)[C@@H]1O; experiment: purified protein, by the assay type; conditions: other: sugar + 90 μM DCPIP, 0.1M sodium phosphate buffer, pH 7.5, 40° C.
[6] = substrate: O=C1C(Cl)=CC(=Nc2ccc(O)cc2)C=C1Cl; experiment: purified protein, by the assay type; conditions: other: electron acceptor + 225 μM cellobiose, 0.1M sodium phosphate buffer, pH 7.5, 40° C.
Procedure: as §2, §3

[7] = substrate: OC[C@H]1O[C@@H](O[C@H]2[C@H](O)[C@@H](O)[C@H](O[C@H]3[C@H](O)[C@@H](O)[C@H](O[C@H]4[C@H](O)[C@@H](O)C(O)O[C@@H]4CO)O[C@@H]3CO)O[C@@H]2CO)[C@H](O)[C@@H](O)[C@@H]1O; experiment: purified protein, by the assay type; conditions: other: sugar + 90 μM DCPIP, 0.1M sodium phosphate buffer, pH 7.5, 40° C.
[8] = substrate: OC[C@H]1O[C@H](O[C@H]2[C@H](O)[C@@H](O)[C@H](O)O[C@@H]2CO)[C@H](O)[C@@H](O)[C@@H]1O; experiment: purified protein, by the assay type; conditions: other: sugar + 90 μM DCPIP, 0.1M sodium phosphate buffer, pH 7.5, 40° C.
Procedure: as §2, §3

[9] = substrate: OC[C@@H](O)[C@@H](O[C@@H]1O[C@H](CO)[C@@H](O[C@@H]2O[C@H](CO)[C@@H](O[C@@H]3O[C@H](CO)[C@@H](O)[C@H](O)[C@H]3O)[C@H](O)[C@H]2O)[C@H](O)[C@H]1O)[C@H](O)[C@@H](O)CO; experiment: Coupled cellobiose oxidase/DCPIP assay for cellulases; format: biochemical; conditions: other: CBH II; reduced cellodextrin substrate
From the text: (§1) The ability of the cellobiose oxidase to oxidize cellodextrins by means of an electron acceptor was utilized in an assay for cellulases. […] With this assay the kinetic constants for reduced cellodextrins of 5 different cellulases have been determined (table 2). […] The enzymes show very different substrate specificity, some of them requiring quite long substrates making it impossible to use the umbelliferyl cellobiosides and lactosides available for steady state kinetic. […] The inhibition constants were determined for two cellulases using the developed assay.

[10] = substrate: OC[C@@H](O)[C@@H](O[C@@H]1O[C@H](CO)[C@@H](O[C@@H]2O[C@H](CO)[C@@H](O[C@@H]3O[C@H](CO)[C@@H](O[C@@H]4O[C@H](CO)[C@@H](O[C@@H]5O[C@H](CO)[C@@H](O)[C@H](O)[C@H]5O)[C@H](O)[C@H]4O)[C@H](O)[C@H]3O)[C@H](O)[C@H]2O)[C@H](O)[C@H]1O)[C@H](O)[C@@H](O)CO; experiment: as above; format: biochemical; conditions: other: CBH II; reduced cellodextrin substrate
From the text: as §1

[11] = substrate: OC[C@@H](O)[C@@H](O[C@@H]1O[C@H](CO)[C@@H](O[C@@H]2O[C@H](CO)[C@@H](O[C@@H]3O[C@H](CO)[C@@H](O[C@@H]4O[C@H](CO)[C@@H](O)[C@H](O)[C@H]4O)[C@H](O)[C@H]3O)[C@H](O)[C@H]2O)[C@H](O)[C@H]1O)[C@H](O)[C@@H](O)CO; experiment: as above; format: biochemical; conditions: other: CBH II; reduced cellodextrin substrate
From the text: as §1

Protein | Km [1] [µM] | kcat [1] [s⁻¹] | Km [2] [µM] | Km [3] [µM] | kcat [3] [s⁻¹] | Km [4] [µM] | kcat [4] [s⁻¹] | Km [5] [µM] | Km [6] [µM] | kcat [6] [s⁻¹] | Km [7] [µM] | Km [8] | kcat [8] [s⁻¹] | Km [9] [µM] | Km [10] [µM] | Km [11] [µM]
B1 | 18 | 1.85 | 132 | 51 | 10 | 11 | 10 | 19 | 26 | 12 | 21 | 11,000 μM | 0.83 |  |  | 
B2 |  |  |  |  |  |  |  |  |  |  |  |  |  | 490 | 4.7 | 3
